18 molecules from patent US20260356955 (published 2026) can be followed below.

As a reminder, the Kd is the constant that tells how readily two partners part at equilibrium. A higher Kd goes with weaker binding. By EC50 is commonly meant the concentration giving half of the maximal effect. A word on the IC50: it is the point on the concentration scale where inhibition reaches its midpoint.

Residue numbers refer to the chain shown, from its start. Read-outs that look alike come from different tables or passages of the source.

Experiment [1] deals with human KLRB1 ECD (human). Briefly: SPR.
Experiment [2] has as its target T1, cynomolgus KLRB1 ECD (cynomolgus).
T1 chain: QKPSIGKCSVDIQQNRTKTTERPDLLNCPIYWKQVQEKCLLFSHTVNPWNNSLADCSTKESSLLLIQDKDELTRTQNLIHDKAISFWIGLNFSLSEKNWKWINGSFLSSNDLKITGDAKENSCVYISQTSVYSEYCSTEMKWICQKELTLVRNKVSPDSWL
Briefly: SPR. (Surface plasmon resonance follows binding to a sensor surface in real time, without labels.)

In experiment [3] the target is human KLRB1 ECD (human). Briefly: SPR. The source holds these as a separate data set.
Experiment [4] deals with T2, cynomolgus KLRB1 on CHO-K1 (cynomolgus).
T2 chain: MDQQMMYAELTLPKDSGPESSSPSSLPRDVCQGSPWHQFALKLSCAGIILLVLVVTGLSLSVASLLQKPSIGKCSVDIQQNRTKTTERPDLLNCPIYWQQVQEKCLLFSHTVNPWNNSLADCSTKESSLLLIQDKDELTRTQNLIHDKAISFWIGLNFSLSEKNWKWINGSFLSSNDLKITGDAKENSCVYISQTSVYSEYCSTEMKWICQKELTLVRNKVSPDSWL
Nature of the experiment: FACS. A general note: A flow cytometer gives signals particle by particle.

Experiment [5] addresses human KLRB1 ECD (human). Briefly: ELISA. A general note: An ELISA detects its analyte on a solid surface through an enzyme-linked reagent.
Experiment [6] addresses human KLRB1 on CHO-K1 (human). Briefly: competition, CLEC2D, FACS.
In experiment [7] the target is human KLRB1 on CHO-K1 (human). Nature of the experiment: FACS.
Experiment [8] addresses T1, cynomolgus KLRB1 ECD. Nature of the experiment: ELISA.
In experiment [9] the target is human KLRB1 ECD (human). Nature of the experiment: SPR. The source holds these as a separate data set.
For experiment [10], the target named is human KLRB1 ECD (human). Nature of the experiment: SPR. This is another data set of the same source.
Experiment [11] concerns the target human KLRB1 ECD (human). Briefly: SPR. This is another data set of the same source.
In experiment [12] the target is human KLRB1 on CHO-K1 (human). Nature of the experiment: FACS. The source holds these as a separate data set.
Experiment [13] has as its target T2, cynomolgus KLRB1 on CHO-K1. Nature of the experiment: FACS.
Experiment [14] deals with human KLRB1 ECD (human). Briefly: ELISA. The source holds these as a separate data set.
Experiment [15] concerns the target human KLRB1 ECD (human). Nature of the experiment: SPR. This is another data set of the same source.

Chain of human KLRB1 on CHO-K1 (human) (chain, as listed by the source): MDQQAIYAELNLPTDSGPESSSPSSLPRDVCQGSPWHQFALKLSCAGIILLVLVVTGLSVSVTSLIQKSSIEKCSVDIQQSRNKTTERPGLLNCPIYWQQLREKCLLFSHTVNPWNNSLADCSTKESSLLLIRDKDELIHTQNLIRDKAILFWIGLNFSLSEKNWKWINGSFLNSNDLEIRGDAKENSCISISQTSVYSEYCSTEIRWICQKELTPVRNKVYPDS
Chain of human KLRB1 ECD (human) (chain, as listed by the source): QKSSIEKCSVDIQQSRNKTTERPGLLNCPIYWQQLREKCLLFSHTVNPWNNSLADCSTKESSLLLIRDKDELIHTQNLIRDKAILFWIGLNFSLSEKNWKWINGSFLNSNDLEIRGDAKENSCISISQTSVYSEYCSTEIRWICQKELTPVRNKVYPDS

B1: 92E12F2 (antibody, V domains shown)
VH: DVQLQESGPGLVKPSQSLSLTCSVTGYSITSGYYWNWIRQFPGNKLEWLGYISYDGSNNDNPSLTNRISISRDTSRNQFFLKFNSVTTDDSATYYCARGDFYGYVYWGQGTTLTVSS
VL: DIVLTQSPASLAVSLGQRATISCRASKSVSSSGYTYLHWYQQKPGQPPKLLIYLTSNLDSGVPARFSGSGSGTDFTLNIHPVEEEDAATYYCQHSRELPRTFGGGTKLEIK
In the experiment with human KLRB1 ECD [1], B1 registered a dissociation constant (Kd) of 3330 pM.

B2: 57E2E4 chimeric (antibody, V domains shown)
VH: DVQLQESGPGLVKPSQSLSLTCSVTGYSISSGYYWNWIRQFPGNKLEWMAYISYDGSNNYNPSLKNRVSITRDTSKNQFFLRLNSVTAEDTATYYCTRGDFYGYVYWGQGTTLTVSL
VL: B1 VL with S28R, S31T, G33D, T35S, L37M, T55A, D59E, L98F
The molecule B2 yielded a dissociation constant Kd with human KLRB1 ECD [1] of 575 pM.

B3: 47A5H2 chimeric (antibody, V domains shown)
VH: QVQLQQPGAELVRPGASVKLSCKGSGYSFTGYWMHWVKQRPGQGLEWIGMIHPSDSETRLNQKFKDKATLTVDKSSSTTYMQLSSPTSEDSAVYYCASEGLRRGSFAYWGQGTLVTVSA
VL: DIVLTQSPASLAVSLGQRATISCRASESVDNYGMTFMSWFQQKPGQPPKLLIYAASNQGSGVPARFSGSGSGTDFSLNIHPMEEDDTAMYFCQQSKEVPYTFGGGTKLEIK
Turning to B3, the dissociation constant Kd amounted to 6610 pM with cynomolgus KLRB1 ECD [2], 712 pM with human KLRB1 ECD [3] and 306 pM with human KLRB1 ECD [1]. Moreover, the EC50 was 2590 pM in experiment [4], 22.1 pM with human KLRB1 ECD [5], 1840 pM with human KLRB1 on CHO-K1 [7] and 18.2 pM with cynomolgus KLRB1 ECD [8]. The half-inhibitory concentration (IC50) with human KLRB1 on CHO-K1 [6] was determined as 2540 pM.

B4: 13H2D11 (antibody, V domains shown)
VH: B3 VH with G24A, G31S, H35N, T79A, L101F
VL: not shown
Regarding B4, the dissociation constant (Kd) with human KLRB1 ECD [1] was 17100 pM. In other words, the double-digit nanomolar range.

B5: Hu22F10G3-3.4 (antibody, V domains shown)
VH: QVQLQESGPGLVKPSQTLSLTCTVSGYSLTSDFAWNWIRQHPGKGLEWMGDIRYSGSTDYNPSLKGRSTISRDTSKNQFSLKLSSVTAADTAVYYCARGGYYGYDEGYPMDYWGQGTLVTVSS
VL: DIVMTQSPDSLAVSLGERATISCRASESVDVYGNSFMHWYQQKPGQPPKLLIYLAFNLKSGVPARFSGSGSGTDFTLTISSLQAEDVATYYCQQNNEDPFTFGQGTKLEIK
In the case of B5, the Kd with human KLRB1 ECD [9] amounted to 120 pM; with human KLRB1 ECD [10], 129 pM.

B6: Hu22F10G3-2.3-QS (antibody, V domains shown)
VH: B5 VH with S68V
VL: B5 VL with N34Q, A64D, T89V
Turning to B6, binding with human KLRB1 ECD [11] was put at a Kd of 653 pM. This lies in the sub-nanomolar range.

B7: Hu22F10G3-2.3-NA (antibody, V domains shown)
VH: B5 VH with S68V
VL: B5 VL with S35A, A64D, T89V
As for B7, the Kd in the experiment with human KLRB1 ECD [11] worked out at 140 pM.

B8: Hu22F10G3-2.3 (antibody, V domains shown)
VH: B5 VH with S68V
VL: B5 VL with A64D, T89V
With B8, the Kd with human KLRB1 ECD [11] amounted to 68.8 pM; in the experiment with human KLRB1 ECD [9], 96.6 pM; with human KLRB1 ECD [10] it was 103 pM.

B9: Hu22F10G3-1.1 (antibody, V domains shown)
VH: B5 VH with M49I, S68V, R72V
VL: B5 VL with S22N, A64D, T89V
Take B9: the values for the dissociation constant (Kd) with human KLRB1 ECD [9] and with human KLRB1 ECD [10] were 124 pM and 134 pM, respectively.

B10: 7B6C7 chimeric (antibody, V domains shown)
VH: QVQLKESGPGLVAPSQSLSITCTVSGFSLNDYGVNWVRQPPGKALEWLGMIWGDGSTDYNSALKSRLTITKDNSKSQVFLKMNSLHTDDTARYFCARTYNYYHYWYFDVWGAGTTVTVSS
VL: DIQMTQSPASLSASVGETVTITCRASGNIHNYLSWYQQKQGKSPQLLVYNAETLADGVPSRFSGSGSGTQYSLKINNLQPEDFGSYYCQHFWSTPYTFGGGTKLEIK
Consider B10, for which the Kd with human KLRB1 ECD [1] is 14.7 pM.

B11: 66G9C11 (antibody, V domains shown)
VH: HVQLQQSGPELVRPGASVKLSCKASGYIFFTFWMNWVKQRPGQGLEWIGQIFPASGSTNYNEMFEGKATLTVDTSSSTAYMQLSSLTSEDSAVYYCASLERAWFAYWGQGTLVTVSA
VL: DIVLTQSPATLSVTPGDRVSLSCRASQSINNYLHWYQQKSHESPRLLIKYASQSISGIPSRFSGSGSGADFTLSINSVETEDFGMYFCQQSNSWPPTFGGGTKLEIK
On to B11, for which the affinity with human KLRB1 ECD [1], expressed as Kd, was 6380 pM. Against the preceding molecule, the Kd is about 430-fold higher.

B12: 22F10G3 chimeric (antibody, V domains shown)
VH: DVQLQESGPGQVKPSQSLSLTCTVTGYSLTSDFAWNWIRQFPGNRLEWMGDIRYSGSTDYNPSLKGRSSITRDTSKNQFFLQLNSVTTEDTATYYCARGGYYGYDEGYPMDYWGQGTSVTVSS
VL: NIVLTQSPASLAVSLGQRATISCRASESVDVYGNSFMHWYQQKTGQPPKLLIYLAFNLKSGVPARFSGSGSRTDFTLTIDPVEADDAATYYCQQNNEDPFTFGSGTKLEIK
As for B12, the dissociation constant Kd with human KLRB1 ECD [9] came to 66.5 pM; with human KLRB1 ECD [10], 42.9 pM.

B13: Hu50A8F2-01 (antibody, V domains shown)
VH: QVQLVQSGAEVKKPGASVKVSCKASGYTFIDYYINWVRQAPGQGLEWMGWIFPGSGHTKYNENFKGRVTMTRDTSTSTVYMELSSLRSEDTAVYYCARGDRSALGYFDYWGQGTTVTVSS
VL: DIQMTQSPSSLSASVGDRVTITCTASSSVSSTYLHWYQQKPGKAPKLLIYSTSNLASGVPSRFSGSGSGTDFTLTISSLQPEDFATYYCHQYHRSPLTFGQGTKLEIK
Turning to B13, the EC50 with human KLRB1 on CHO-K1 [12] was 5540 pM; with human KLRB1 ECD [14] it was 19.7 pM. In addition, the binding result in [13] is recorded as “no binding”. Moreover, the Kd with human KLRB1 ECD [15] turned out to be 1550 pM.

B14: Hu50A8F2-03 (antibody, V domains shown)
VH: B13 VH
VL: B13 VL with M4L, A44S, F72Y
In the case of B14, the EC50 with human KLRB1 on CHO-K1 [12] was 5170 pM; with human KLRB1 ECD [14] it was 11.3 pM. Moreover, the binding result in experiment [13] is “no binding”. Moreover, binding with human KLRB1 ECD [15] was characterised by a dissociation constant (Kd) of 665 pM.

B15: Hu50A8F2-06 (antibody, V domains shown)
VH: B13 VH with R67K, R72V
VL: B13 VL with F72Y
For the molecule B15, the EC50 in the experiment with human KLRB1 on CHO-K1 [12] is 5440 pM; with human KLRB1 ECD [14] it was 23.6 pM. The binding result in [13] is reported as “no binding”. In the experiment with human KLRB1 ECD [15], this molecule registered an equilibrium dissociation constant (Kd) of 828 pM.

B16: 62H1D6 (antibody, V domains shown)
VH: QVQLQQSGPELVRPGVSVKISCKGSGYTFTDYAMHWVKQSHAKSLEWIGVISTYYGNTNYNQKFKGRATMTVDKSSSTAYMELARLTSEDSAIYYCAREYGNYPYYYAMDYWGQGTSVTVSS
VL: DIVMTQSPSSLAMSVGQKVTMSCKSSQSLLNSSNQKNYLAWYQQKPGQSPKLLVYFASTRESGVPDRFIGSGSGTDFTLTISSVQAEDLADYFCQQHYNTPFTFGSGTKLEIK
Turning to B16, the Kd with human KLRB1 ECD [1] was 7030 pM.

B17: 50A8F2 chimeric (antibody, V domains shown)
VH: QIQLQQSGPELVKPGASVKISCKASGYTFIDYYINWVKQKPGQGLEWIGWIFPGSGHTKYNENFKGKATLTVDTSSSTAYMHLSSLTSEDTAVYFCARGDRSALGYFDYWGQGSTLTVSS
VL: QIVLTQSPAIMSASLGERVTMTCTASSSVSSTYLHWYQQKPGSSPKLWIYSTSNLASGVPARFSGSGSGTSYSLTFSSMEAEDAATYYCHQYHRSPLTFGAGTKLELK
Regarding B17, the concentration giving a half-maximal response (EC50) in the experiment with human KLRB1 on CHO-K1 [12] stood at 5870 pM; in the experiment with human KLRB1 ECD [14], 25.2 pM. Also, the binding result in [13] is given as “no binding”. The Kd in the experiment with human KLRB1 ECD [15] is 229 pM; with human KLRB1 ECD [1], 52.1 pM.

B18: Hu47A5H2-07 (antibody, V domains shown)
VH: QVQLVQSGAEVKKPGASVKVSCKASGYSFTGYWMHWVRQAPGQGLEWMGMIHPSDSETRLNQKFKDRVTMTVDTSTSTVYMELSSLRSEDTAVYYCASEGLRRGSFAYWGQGTLVTVSS
VL: DIVLTQSPDSLAVSLGERATINCRASESVDNYGMTFMSWFQQKPGQPPKLLIYAASNQGSGVPDRFSGSGSGTDFTLTISSLQAEDVAVYYCQQSKEVPYTFGQGTKLEIK
With B18, the Kd with cynomolgus KLRB1 ECD [2] worked out at 3250 pM; with human KLRB1 ECD [3], 1040 pM. Besides, the half-maximal effective concentration (EC50) turned out to be 10800 pM in experiment [4], 13.4 pM with human KLRB1 ECD [5], 2350 pM in the experiment with human KLRB1 on CHO-K1 [7] and 10.8 pM with cynomolgus KLRB1 ECD [8]. For the same molecule, the 50% inhibitory concentration (IC50) with human KLRB1 on CHO-K1 [6] amounted to 2320 pM.
